Assay results published in article PMC1931443, “Vertebrate DM domain proteins bind similar DNA sequences and can heterodimerize on DNA” (BMC Molecular Biology, 2007).

B1: DMRT3 (mouse), Myc epitope tagged, in vitro translated (natural protein, UniProt Q80WT2 1-476, looked up)
chain: MNGYGSPYLYMGGPVSQPPRAPLQRTPKCARCRNHGVLSWLKGHKRYCRFKDCTCEKCILIIERQRVMAAQVALRRQQANESLESLIPDSLRALPGPPPPGDAAATAATASQSSPASQASQPPAPPRPTAELAAAAALRWVAEPQPGTLPAQLAKPDLTEERVGDSSSTDNTAEAFSDKDTDQRSSPDVVKSKNCFTPESPEIVSVDEGGYAVQKNGGNPESCPDSPKYHAEQSHLLIEGPSGTVSLPFSLKANRPPLEVLKKIFPNQKPTVLELILKGCGGDLVSAVEVLLSSRSSAAGAERTAEESLVLPSSGHIFEHTLGSYPISSSKWSVGSAFRVPDTLRFSADSSNVVPNPLAVPLQHPFPQPPRYPLMLRNTLARNQSSPFLPNDVTLWNTMTLQQQYQLRSQYVSPFPSNSTSVFRSSPVLSSRTTEDPRISIPDDGCPIVTKQSIYTEDDYDERSDSSDSRILNTSS
notes: DMRT3, mouse; also called tagged DMRT3; source: in vitro translated (TNT Quick Coupled transcription/translation system, Promega, with 20 uM ZnSO4), not purified
B2: DMRT1 of the heterodimerization gel shifts (complex not affected by the 9E10 anti-Myc antibody) (natural protein)
chain: not shown
notes: DMRT1, mouse; the construct used in this experiment is not described; The methods describe only a Myc-tagged DMRT1 construct; source: in vitro translated, not purified
B3: DMRT1 (mouse), full-length, amino-terminal Myc epitope tag, in vitro translated (natural protein)
chain: not shown
notes: DMRT1, mouse, full-length protein made by in vitro transcription/translation; also called in vitro translated DMRT1; source: in vitro translated (TNT Quick Coupled transcription/translation system, Promega, with 20 uM ZnSO4), not purified
B4: DMRT5 (mouse), Myc epitope tagged, in vitro translated (natural protein, UniProt A2A9A2 1-531, looked up)
chain: MELRSELPSVPGAATAAATATGPPVASVASVAAAAAAAASLPVSVAGGLLRAPPLLLRAAEKYPRTPKCARCRNHGVVSALKGHKRYCRWKDCLCAKCTLIAERQRVMAAQVALRRQQAQEENEARELQLLYGTAEGLALAAANGIIPPRPAYEVFGSVCATDGGGPGAGAPAGSAGGAGGAEAKLQKFDLFPKTLLQAGRPDSPQPPPGKPLSPDGADSGPRTSSPEVRPGSGSENGDGESFSGSPLARASKEAGGSCPGSAGAGGGGEEDSPGSSSPLGSESGSEADKEEAEAAPTPGLGGGPGPRQRTPLDILTRVFPGHRRGVLELVLQGCGGDVVQAIEQVLNHHRGGLAAGLGPAAPLEKAAVSAAVEDAWPGRVEAAAAGGAGLPAPLQTGPTAPPHHRPLLAGAMTPGALGSLSSRSAFSPLQPNASHFGADAGAYPLGAPLGLSPLRLAYSAAAAHSRGLAFMAPYSTAGLVPTLGFRPPMDYAFSDLMRDRSAAAAAAVHKEPGYGGGLYGPMVNGTPEKQ
notes: DMRT5, mouse; source: in vitro translated (TNT Quick Coupled transcription/translation system, Promega, with 20 uM ZnSO4), not purified

Key:
[1] = molecular target: the molecule itself; experiment: native gel or EMSA; one in vitro translated DMRT protein (4 ul translation mix) with 32P-labelled dsDNA probe bearing the DMRT1 consensus site; monomer and dimer complexes seen on DNA; 10 mM Tris-HCl pH 7.9, 100 mM KCl, 10% glycerol, 5 mM MgCl2, 1 mM spermidine, 0.075% Triton-X-100, 1 mM DTT; on ice 10 min; 5% native gel at 4 C
[2] = molecular target: the molecule itself; experiment: native gel or EMSA; DMRT1 alone or together with a Myc-tagged DMRT protein (in vitro translated) on labelled DMRT1 consensus probe; composition of the DNA/protein complexes tested by supershift with DMRT1 antibody or anti-Myc 9E10; dimers seen on DNA

Protein	stoichiometry N [1]	stoichiometry N [2]
B1	2	–
B2	–	2
B3	2	–
B4	2	–
